In publication PMC12290011, “Pseudomonadal itaconate degradation gene cluster encodes enzymes for methylsuccinate utilization” (Communications Biology, 2025):

Key:
C[C@H](CC(=O)O)C(=O)O = assay: purified protein; details: 1 mM succinyl-CoA, pH 7.0, 5 mM MgCl2, 30 °C
Excerpt: (§4) UHPLC assay of CoA-esters on P. aeruginosa itaconate CoA transferase
C=C(CC(=O)O)C(=O)O = assay: purified protein; details: 1 mM succinyl-CoA, pH 7.0, 5 mM MgCl2, 30 °C
Excerpt: as §4
C[C@@H](CC(=O)O)C(=O)O = assay: purified protein; details: 1 mM succinyl-CoA, pH 7.0, 5 mM MgCl2, 30 °C
Excerpt: as §4

[1] = target: T1, C. necator MmgE/PrpD family protein, (S)-(R)-methylsuccinate isomerase (Cupriavidus necator, UniProt Q0K3E6); assay: coupled assay with C. necator itaconate CoA transferase, UHPLC; type: biochemical; details: 2.5 mM substrate, pH 7.0, 5 mM MgCl2, 30 °C
T1 construct: gene prpD2; synthetic codon-optimized gene in pET16b, His-tagged, E. coli BL21(DE3), Ni-NTA purified
T1 sequence (Q0K3E6 1-460): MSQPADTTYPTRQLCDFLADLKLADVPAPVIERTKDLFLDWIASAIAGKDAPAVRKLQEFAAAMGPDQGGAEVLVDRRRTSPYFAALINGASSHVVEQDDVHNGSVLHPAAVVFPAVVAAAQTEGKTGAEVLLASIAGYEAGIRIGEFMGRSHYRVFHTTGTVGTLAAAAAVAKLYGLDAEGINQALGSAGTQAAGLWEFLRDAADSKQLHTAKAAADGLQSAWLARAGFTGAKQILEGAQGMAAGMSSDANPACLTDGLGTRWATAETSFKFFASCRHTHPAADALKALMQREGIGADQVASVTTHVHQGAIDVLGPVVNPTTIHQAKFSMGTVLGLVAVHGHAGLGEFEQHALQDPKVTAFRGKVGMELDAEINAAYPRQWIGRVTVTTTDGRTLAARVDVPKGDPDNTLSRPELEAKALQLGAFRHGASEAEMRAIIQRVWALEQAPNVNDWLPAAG

[2] = target: T2, P. aeruginosa MmgE/PrpD family protein, (S)-(R)-methylsuccinate isomerase (Pseudomonas aeruginosa, UniProt Q9I564); assay: as above; type: biochemical; details: 2.5 mM substrate, pH 7.0, 5 mM MgCl2, 30 °C
T2 construct: gene PA0881; synthetic codon-optimized gene in pET16b, His-tagged, E. coli BL21(DE3), Ni-NTA purified
T2 sequence (Q9I564 1-450): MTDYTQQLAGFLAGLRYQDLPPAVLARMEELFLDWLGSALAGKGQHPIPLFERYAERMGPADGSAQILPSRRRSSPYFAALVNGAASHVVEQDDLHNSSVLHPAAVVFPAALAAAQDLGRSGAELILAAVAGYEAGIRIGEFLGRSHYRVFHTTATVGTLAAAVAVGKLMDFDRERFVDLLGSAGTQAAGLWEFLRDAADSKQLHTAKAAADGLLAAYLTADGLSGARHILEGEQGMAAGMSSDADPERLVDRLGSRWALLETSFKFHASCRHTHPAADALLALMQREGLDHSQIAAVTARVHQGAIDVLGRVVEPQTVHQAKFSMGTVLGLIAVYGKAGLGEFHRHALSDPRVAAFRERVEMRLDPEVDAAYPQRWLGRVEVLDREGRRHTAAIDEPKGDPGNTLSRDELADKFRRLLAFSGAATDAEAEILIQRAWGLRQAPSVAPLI

[3] = target: T3, Pa. xenovorans MmgE/PrpD family protein Bxe_B2582 (Paraburkholderia xenovorans, UniProt Q13R78); assay: as above; type: biochemical; details: 2.5 mM substrate, pH 7.0, 5 mM MgCl2, 30 °C
T3 construct: pET16b, His-tagged, E. coli BL21(DE3), Ni-NTA purified
T3 sequence (Q13R78 1-494): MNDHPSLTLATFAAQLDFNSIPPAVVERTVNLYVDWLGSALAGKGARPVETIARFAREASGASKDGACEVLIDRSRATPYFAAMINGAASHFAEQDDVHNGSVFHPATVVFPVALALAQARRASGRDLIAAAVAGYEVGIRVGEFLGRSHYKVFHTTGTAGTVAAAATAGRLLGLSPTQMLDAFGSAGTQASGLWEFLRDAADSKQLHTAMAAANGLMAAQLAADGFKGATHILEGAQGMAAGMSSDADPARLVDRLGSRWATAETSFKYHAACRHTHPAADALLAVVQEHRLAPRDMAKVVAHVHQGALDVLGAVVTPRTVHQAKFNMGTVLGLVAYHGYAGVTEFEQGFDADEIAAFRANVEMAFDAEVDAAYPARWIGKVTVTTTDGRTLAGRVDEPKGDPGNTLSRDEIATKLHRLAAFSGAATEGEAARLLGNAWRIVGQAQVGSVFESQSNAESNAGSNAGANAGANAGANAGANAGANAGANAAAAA

purified protein = substrate: O=C(O)C[C@H](O)C(=O)O; assay: purified protein; details: 1 mM succinyl-CoA, pH 7.0, 5 mM MgCl2, 30 °C
[4] = substrate: C[C@@H](CC(=O)O)C(=O)O; assay: UHPLC assay of CoA-esters; type: biochemical, Cupriavidus necator; details: 1 mM succinyl-CoA, pH 7.0, 5 mM MgCl2, 30 °C
Excerpt: (§1) UHPLC assay of CoA-esters on C. necator itaconate CoA transferase

[5] = substrate: O=C(O)CCCC(=O)O; assay: UHPLC assay of CoA-esters; type: biochemical, Cupriavidus necator; details: 1 mM succinyl-CoA, pH 7.0, 5 mM MgCl2, 30 °C
Excerpt: as §1

[6] = substrate: C=C(CC(=O)O)C(=O)O; assay: UHPLC assay of CoA-esters; type: biochemical, Cupriavidus necator; details: 1 mM succinyl-CoA, pH 7.0, 5 mM MgCl2, 30 °C
Excerpt: as §1

[7] = substrate: CC(C)(COP(=O)(O)OP(=O)(O)OC[C@H]1O[C@@H](n2cnc3c(N)ncnc32)[C@H](O)[C@@H]1OP(=O)(O)O)[C@@H](O)C(=O)NCCC(=O)NCCSC(=O)CCC(=O)O; assay: UHPLC assay of CoA-esters; type: biochemical, Cupriavidus necator; details: 10 mM itaconate, pH 7.0, 5 mM MgCl2, 30 °C
Excerpt: as §1

[8] = substrate: C[C@](O)(CC(=O)O)C(=O)O; assay: UHPLC assay of CoA-esters; type: biochemical, Cupriavidus necator; details: 1 mM succinyl-CoA, pH 7.0, 5 mM MgCl2, 30 °C
Excerpt: as §1

[9] = substrate: C[C@H](CC(=O)O)C(=O)O; assay: UHPLC assay of CoA-esters; type: biochemical, Cupriavidus necator; details: 1 mM succinyl-CoA, pH 7.0, 5 mM MgCl2, 30 °C
Excerpt: as §1

[10] = substrate: C[C@@H](CC(=O)SCCNC(=O)CCNC(=O)[C@H](O)C(C)(C)COP(=O)(O)OP(=O)(O)OC[C@H]1O[C@@H](n2cnc3c(N)ncnc32)[C@H](O)[C@@H]1OP(=O)(O)O)C(=O)O; assay: UHPLC assay of mesaconyl-CoA formation; type: biochemical, Pseudomonas aeruginosa; details: 1 mM phenazine methosulfate as electron acceptor, pH 7.0, 5 mM MgCl2, 30 °C
Excerpt: (§2) UHPLC assay of mesaconyl-CoA formation on P. aeruginosa methylsuccinyl-C4-CoA dehydrogenase

[11] = substrate: C[C@H](CC(=O)SCCNC(=O)CCNC(=O)[C@H](O)C(C)(C)COP(=O)(O)OP(=O)(O)OC[C@H]1O[C@@H](n2cnc3c(N)ncnc32)[C@H](O)[C@@H]1OP(=O)(O)O)C(=O)O; assay: UHPLC assay of mesaconyl-CoA formation; type: biochemical, Pseudomonas aeruginosa; details: 1 mM phenazine methosulfate as electron acceptor, pH 7.0, 5 mM MgCl2, 30 °C
Excerpt: as §2

[12] = substrate: C[C@@H](CC(=O)SCCNC(=O)CCNC(=O)[C@H](O)C(C)(C)COP(=O)(O)OP(=O)(O)OC[C@H]1O[C@@H](n2cnc3c(N)ncnc32)[C@H](O)[C@@H]1OP(=O)(O)O)C(=O)O; assay: UHPLC assay of mesaconyl-CoA formation; type: biochemical, Cupriavidus necator; details: 1 mM phenazine methosulfate as electron acceptor, pH 7.0, 5 mM MgCl2, 30 °C
Excerpt: (§3) UHPLC assay of mesaconyl-CoA formation on C. necator methylsuccinyl-C4-CoA dehydrogenase

[13] = substrate: C[C@H](CC(=O)SCCNC(=O)CCNC(=O)[C@H](O)C(C)(C)COP(=O)(O)OP(=O)(O)OC[C@H]1O[C@@H](n2cnc3c(N)ncnc32)[C@H](O)[C@@H]1OP(=O)(O)O)C(=O)O; assay: UHPLC assay of mesaconyl-CoA formation; type: biochemical, Cupriavidus necator; details: 1 mM phenazine methosulfate as electron acceptor, pH 7.0, 5 mM MgCl2, 30 °C
Excerpt: as §3

Molecule: P. aeruginosa itaconate CoA transferase (Pseudomonas aeruginosa PAO1)
- Km (C[C@H](CC(=O)O)C(=O)O): 600 ± 200 µM
- Vmax (C[C@H](CC(=O)O)C(=O)O): 69.8 µmol/min/mg
- kcat/Km (C[C@H](CC(=O)O)C(=O)O): 88000 M⁻¹ s⁻¹
- Km (C=C(CC(=O)O)C(=O)O): 800 ± 300 µM
- Vmax (C=C(CC(=O)O)C(=O)O): 73 µmol/min/mg
- kcat/Km (C=C(CC(=O)O)C(=O)O): 66300 M⁻¹ s⁻¹
- Km (C[C@@H](CC(=O)O)C(=O)O): 17800 ± 8000 µM
- Vmax (C[C@@H](CC(=O)O)C(=O)O): 54.3 µmol/min/mg
- kcat/Km (C[C@@H](CC(=O)O)C(=O)O): 2200 M⁻¹ s⁻¹

Molecule: C[C@@H](CC(=O)O)C(=O)O [(S)-Methylsuccinate]
- coupled assay with C. necator itaconate CoA transferase, UHPLC [1]: both MmgE/PrpD proteins catalyzed the isomerization of (S)-methylsuccinate to (R)-methylsuccinate
- coupled assay with C. necator itaconate CoA transferase, UHPLC [2]: both MmgE/PrpD proteins catalyzed the isomerization of (S)-methylsuccinate to (R)-methylsuccinate
- coupled assay with C. necator itaconate CoA transferase, UHPLC [3]: we tested the isomerase activity of the Pa. xenovorans MmgE/PrpD family protein Bxe_B2582

Molecule: C[C@H](CC(=O)O)C(=O)O [(R)-Methylsuccinate]
- coupled assay with C. necator itaconate CoA transferase, UHPLC [1]: both MmgE/PrpD proteins catalyzed the isomerization of (S)-methylsuccinate to (R)-methylsuccinate
- coupled assay with C. necator itaconate CoA transferase, UHPLC [2]: both MmgE/PrpD proteins catalyzed the isomerization of (S)-methylsuccinate to (R)-methylsuccinate
- coupled assay with C. necator itaconate CoA transferase, UHPLC [3]: we tested the isomerase activity of the Pa. xenovorans MmgE/PrpD family protein Bxe_B2582

B1: C. necator itaconate CoA transferase (Cupriavidus necator H16) (protein)
chain: MSHSPKGIRPLDGIRVVSLEHAVAAPFATRQLADLGARVIKIERPGVGDFARGYDQSVHGQASYFVWLNRGKESLTLDLKDREAQAILHRLLADADVLVQNLAPGAAVRMGLDFDSLHGKYDKLIVCDISGYGDSGPYRDKKAYDLLIQAAAGLVGLTGGPNEPSRAGVSIADISAGMYAYSGILSALLQRGRTGKGLRVQVTMLEAMAEWMNQVLYFGHYGGKPPGRFGASHPTIAPYGVHRTGNGSVIFSVQNEREFANFCEIVLGNRELAQDERFSSNTARVHNRPELTAIIEERFAPMTVAQAEALLDEAQIANAPMNDIEGVWNHPQLQARQRWREVATPGGPIGALLPPANLSGVEPVMGDVPALGAHSRQILAELGYDDGDIAALADKRTI
notes: pET16b, N-terminal His-tag, E. coli BL21(DE3), Ni-NTA purified
- Km (purified protein): 42800 ± 17200 µM
- Vmax (purified protein): 1.1 µmol/min/mg
- kcat/Km (purified protein): 20 M⁻¹ s⁻¹
- Km [4]: 35600 ± 3200 µM
- Vmax [4]: 35.6 µmol/min/mg
- kcat/Km [4]: 700 M⁻¹ s⁻¹
- Km [5]: 37400 ± 8900 µM
- Vmax [5]: 3.2 µmol/min/mg
- kcat/Km [5]: 60 M⁻¹ s⁻¹
- Km [6]: 4000 ± 1700 µM
- Vmax [6]: 53.2 µmol/min/mg
- kcat/Km [6]: 9500 M⁻¹ s⁻¹
- Km [7]: 760 ± 200 µM
- Vmax [7]: 116 µmol/min/mg
- kcat/Km [7]: 109000 M⁻¹ s⁻¹
- Km [8]: 15600 ± 2300 µM
- Vmax [8]: 10.2 µmol/min/mg
- kcat/Km [8]: 500 M⁻¹ s⁻¹
- Km [9]: 900 ± 100 µM
- Vmax [9]: 82 µmol/min/mg
- kcat/Km [9]: 65200 M⁻¹ s⁻¹

B2: P. aeruginosa methylsuccinyl-C4-CoA dehydrogenase (Pseudomonas aeruginosa PAO1) (protein)
chain: MNPNSEELNAIREGVRALCAEFDAAYWRRIDEQRGFPEAFVKALTDAGWLSAMIPEEYGGSGLGLAEASVILEEVNRCGGNSGTVHGQMYNMFTLLRNGSEAQKRFYLPKLASGELRLQSMGVTEPTTGTDTTKIKTTAVRKGDRYVINGQKVWISRIQHSDLMILLARTTPLAEVKRKSEGMSIFLVDLREAIGKGLTVQPIANMVNHETNELFFDNLEIPADSLIGEEGKGFRYILDGLNAERTLIAAECIGDGRWFIDKASHYARDRVVFGRPIGQNQGVQFPIAEAHIEVEAADLMRWRACQEYDAGLNAGASANMAKYLAAKASWEAANACLQTHGGFGFACEYDVERKFRETRLYQVAPISTNLILSYVAEHLLELPRSF
notes: synthetic codon-optimized gene in pET23a, His-tagged, E. coli BL21(DE3), Ni-NTA purified with FAD in buffers
- Km [10]: 470 ± 130 µM
- Vmax [10]: 2.8 µmol/min/mg
- kcat/Km [10]: 4300 M⁻¹ s⁻¹
- Km [11]: 590 ± 140 µM
- Vmax [11]: 3.38 µmol/min/mg
- kcat/Km [11]: 4100 M⁻¹ s⁻¹

B3: C. necator methylsuccinyl-C4-CoA dehydrogenase (Cupriavidus necator H16) (protein)
chain: MHAHQDPDQLYPEIREAVRDLCAGFDSAYWQRVEEQNAFPETFVQALTQAGWLSALIPEAYGGSGLSLTAASVIMEEINRSGGNSGACHGQMYVMGCLLRHGSEAQKQRWLPGIASGELRMQSMAVTEPTTGTDTTKLKTTAVRQGDKYIVNGQKVWISRVQHSDLMLLLARTTPLDQVKRKSEGLSVFVVDLRDAIGKGLTVKPIRNMVNHETNELFFDNLEVPAGNLIGEEGKGLKYILDGLNAERILIAAECIGDGYWFVERASNYARDRIVFDRPIGQNQAVQFPIARSYINVEAASLMRYKASQLFDAGKPCGKEANISKLLAADASWEAANVCLQTHGGFGFAAEYDIERKFRETRLYQVAPISTNLILSYVAEHVLELPRSF
notes: pET23b, His-tagged, E. coli BL21(DE3), Ni-NTA purified with FAD in buffers
- Km [12]: 420 ± 140 µM
- Vmax [12]: 0.69 µmol/min/mg
- kcat/Km [12]: 1200 M⁻¹ s⁻¹
- Km [13]: 360 ± 80 µM
- Vmax [13]: 0.72 µmol/min/mg
- kcat/Km [13]: 1500 M⁻¹ s⁻¹
